Experiments:
[1] = biological target: FcγRIIIA (CD16) (human) (UniProt P08637); experiment: cell-based or functional assay
[2] = biological target: CD20 on Daudi lymphoma cells (UniProt P11836); experiment: flow cytometry on Daudi cells, goat anti-human Fc AF647; matched Fc density chosen for the comparison of C3b deposition, concentration not given
Chain of CD20 on Daudi lymphoma cells (P11836 whole entry): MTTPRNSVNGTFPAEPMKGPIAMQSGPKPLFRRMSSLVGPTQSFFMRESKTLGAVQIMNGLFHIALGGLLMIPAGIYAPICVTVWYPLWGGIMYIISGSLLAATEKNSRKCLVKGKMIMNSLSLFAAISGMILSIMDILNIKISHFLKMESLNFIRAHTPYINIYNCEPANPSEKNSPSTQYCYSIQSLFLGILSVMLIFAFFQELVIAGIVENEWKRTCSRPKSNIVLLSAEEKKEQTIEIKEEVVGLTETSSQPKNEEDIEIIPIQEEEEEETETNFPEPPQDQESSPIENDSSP

Chain of FcγRIIIA (CD16) (human) (P08637 17-254): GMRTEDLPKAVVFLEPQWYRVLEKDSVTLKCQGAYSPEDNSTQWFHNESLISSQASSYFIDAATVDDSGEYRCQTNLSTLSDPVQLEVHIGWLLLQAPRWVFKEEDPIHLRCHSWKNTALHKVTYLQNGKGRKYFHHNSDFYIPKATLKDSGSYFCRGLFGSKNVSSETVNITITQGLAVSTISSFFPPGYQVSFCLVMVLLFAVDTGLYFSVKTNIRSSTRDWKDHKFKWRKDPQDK

MabThera (rituximab, RTX) (antibody)
percentage of phagocytic macrophages, Daudi targets, absence of complement (ADCP) [1]: 8.6%
percentage of phagocytic macrophages, Daudi targets, presence of complement (ADCP+CDCP) [1]: 24.1%
MFI anti-Fc [2]: 12200 MFI
